B1: His6-SUMO-tagged SH3 to PDZ domains of Shank2 (R520-D727), WT [not stated (human or rat cDNA cloned)] / synthetic peptide of the complete PDZ ligand of GKAP (last 15 amino acids of GKAP/SAPAP1) [not stated] (parent)
chain 1: RKLYSAVPGRLFVAVKPYQPQVDGEIPLHRGDRVKVLSIGEGGFWEGSARGHIGWFPAECVEEVQCKPRDSQAETRADRSKKLFRHYTVGSYDSFDTSSDCIIEEKTVVLQKKDNEGFGFVLRGAKADTPIEEFTPTPAFPALQYLESVDEGGVAWQAGLRTGDFLIEVNNENVVKVGHRQVVNMIRQGGNHLVLKVVTVTRNLDPDD
chain 2: ADSIEIYIPEAQTRL

Variants of B1 are the subject of this experiment. The experiment is described as follows: ITC. As to conditions: with synthetic peptide of the complete PDZ ligand of GKAP (last 15 amino acids of GKAP/SAPAP1); parent: 1.
For chain 1 RKLYSAVPGRLFVAVKPYQPQVDGEIPLHRGDRVKVLSIGEGGFWEGSARGHIGWFPAECVEEVQCKPRDSQAETRADRSKKLFRHYTVGSYDSFDTSSDCIIEEKTVVLQKKDNEGFGFVLRGAKADTPIEEFTPTPAFPALQYLESVDEGGVAWQAGLRTGDFLIEVNSENVVKVGHRQVVNMIRQGGNHLVLKVVTVTRNLDPDD [chain 1 N171S], the ratio to parent is 1.3.
With chain 1 RKLYSAVPGRLFVAVKPYQPQVDGEIPLHRGDRVKVLSIGEGGFWEGSARGHIGWFPAECVEEVQCKPRDSQAETRADRSKKLFRHYTVGSYDSFDTSSDCIIEEKTVVLQKKDNEGFGFVLRGAKADTPIEEFTPTPAFPALQYLESVDEGGVAWQAGLRTGDFLIEVNNENVVKVGHRQVVNMIRQGGNHLVLKVFTVTRNLDPDD [chain 1 V198F], the ratio to parent stood at 2.6.
Turning to chain 1 RKLYSAVPGRLFVAVKPYQPQVDGEIPLHRGDRVKVLSIGEGGFWEGSARGHIGWFPAECVEEVQCKPRDSQAETRADRSKKLFRHYTVGYYDSFDTSSDCIIEEKTVVLQKKDNEGFGFVLRGAKADTPIEEFTPTPAFPALQYLESVDEGGVAWQAGLRTGDFLIEVNNENVVKVGHRQVVNMIRQGGNHLVLKVVTVTRNLDPDD [chain 1 S91Y], the ratio to parent was found to be 2.8.

For the origin of these results see PMC11371640, “Structural deficits in key domains of Shank2 lead to alterations in postsynaptic nanoclusters and to a neurodevelopmental disorder in humans” (Molecular Psychiatry, 2022).
